The values that follow come from patent US5844093.

For assay [1], the target named is EGFR on EGFR-bearing tumor cells (human) (UniProt P00533). Briefly: flow cytometry, A431 cells, crude bacterial supernatant. (In flow cytometry, cells or beads pass a laser one at a time.)
Assay [2] has the same target. Description: flow cytometry, MDA MB 231 cells, crude bacterial supernatant.
The target is the same in assay [3]. Description: flow cytometry, HT29 cells, crude bacterial supernatant.

On to scFv derived from MAb 425, for which the mean of arbritary fluorescence units (arbitrary fluorescence units) came out at 85.5 in assay [1], 21.3 in assay [2] and 2.5 in assay [3].
